Patent US20200188528A1 (FRED HUTCHINSON CANCER RESEARCH CENTER, published 2020)

Target: BACE1 (beta-secretase, beta-site APP cleaving enzyme), endogenous enzyme of HEK/hAPP cells (human, UniProt P56817 46-501)
Experiment: cell-based or functional assay

Sequence of BACE1 (beta-secretase, beta-site APP cleaving enzyme), endogenous enzyme of HEK/hAPP cells (P56817 46-501): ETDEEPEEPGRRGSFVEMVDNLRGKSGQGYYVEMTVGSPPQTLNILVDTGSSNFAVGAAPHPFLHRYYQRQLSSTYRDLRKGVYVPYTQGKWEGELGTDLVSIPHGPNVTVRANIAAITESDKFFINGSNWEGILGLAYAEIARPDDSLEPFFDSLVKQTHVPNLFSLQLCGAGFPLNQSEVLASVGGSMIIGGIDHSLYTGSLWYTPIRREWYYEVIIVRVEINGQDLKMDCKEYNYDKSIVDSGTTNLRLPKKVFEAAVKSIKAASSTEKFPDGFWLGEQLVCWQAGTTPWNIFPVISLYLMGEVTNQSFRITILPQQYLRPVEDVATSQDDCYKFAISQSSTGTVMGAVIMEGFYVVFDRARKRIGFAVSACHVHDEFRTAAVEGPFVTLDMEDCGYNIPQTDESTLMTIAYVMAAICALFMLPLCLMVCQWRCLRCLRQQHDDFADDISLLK

Binder	IC50 (read off the curve), Aβ1-40 secretion from HEK/hAPP cells (HTRF, Percent of Cntl) [nM]
anti-BACE1 peptide-antibody complex (peptide of SEQ ID NO: 1 fused to the anti-BACE1 antibody heavy chain, SEQ ID NO: 429, assembled with the anti-BACE1 … (antibody) heavy: not shown light: DIQMTQSPSSLSASVGDRVTITCRASQDVSTAVAWYQQKPGKAPKLLIYSASFLYSGVPSRFSGSGSGTDFTLTISSLQPEDFATYYCQQFPTYLPTFGQGTKVEIKRTVAAPSVFIFPPSDEQLKSGTASVVCLLNNFYPREAKVQWKVDNALQSGNSQESVTEQDSKDSTYSLSSTLTLSKADYEKHKVYACEVTHQGLSSPVTKSFNRGEC	~10
anti-BACE1 antibody comprising an anti-BACE1 antibody heavy chain of SEQ ID NO: 427 and an anti-BACE1 antibody light chain of SEQ ID NO: 428 (antibody, human IgG1, kappa) heavy: not shown light: DIQMTQSPSSLSASVGDRVTITCRASQDVSTAVAWYQQKPGKAPKLLIYSASFLYSGVPSRFSGSGSGTDFTLTISSLQPEDFATYYCQQFPTYLPTFGQGTKVEIKRTVAAPSVFIFPPSDEQLKSGTASVVCLLNNFYPREAKVQWKVDNALQSGNSQESVTEQDSKDSTYSLSSTLTLSKADYEKHKVYACEVTHQGLSSPVTKSFNRGEC	~10
